Reference: article PMC3072757 (Journal of molecular biology, 2010)
Changes are numbered by the printed parent chain. Names may count otherwise. Like-named read-outs stand apart in the source and are kept apart here.

B1: Recombinant wild-type human αB-crystallin (natural protein, UniProt P02511 1-175, looked up)
chain: MDIAIHHPWIRRPFFPFHSPSRLFDQFFGEHLLESDLFPTSTSLSPFYLRPPSFLRAPSWFDTGLSEMRLEKDRFSVNLDVKHFSPEELKVKVLGDVIEVHGKHEERQDEHGFISREFHRKYRIPADVDPLTITSSLSSDGVLTVNGPRKQVSGPERTIPITREEKPAVTAAPKK
B2: W9F/W60F αB-Crys (natural protein, human, UniProt P02511 1-175, looked up)
chain: B1 chain with W9F, W60F

Key:
SEC [1] = target: the molecule itself; test: SEC
SEC [2] = target: the molecule itself; test: SEC; remark: listed apart in the source

Protein	binding result (SEC [1])	binding result (SEC [2])
B1	binds	
B2		binds
